# Experimental data as given in PMC2515629 (PLoS ONE, 2008).
# Biological target: T1, recombinant BoNT/A light chain (recombinant N-terminal domain of BoNT/A, amino acids 1-425) (Clostridium botulinum type A, …, UniProt P0DPI0)
# T1 construct: source: E. coli, purified following published protocols
# Assay: kinetic exclusion assay (KinExA)
# Settings: both partners purified
# T1 sequence (P0DPI0 1-425): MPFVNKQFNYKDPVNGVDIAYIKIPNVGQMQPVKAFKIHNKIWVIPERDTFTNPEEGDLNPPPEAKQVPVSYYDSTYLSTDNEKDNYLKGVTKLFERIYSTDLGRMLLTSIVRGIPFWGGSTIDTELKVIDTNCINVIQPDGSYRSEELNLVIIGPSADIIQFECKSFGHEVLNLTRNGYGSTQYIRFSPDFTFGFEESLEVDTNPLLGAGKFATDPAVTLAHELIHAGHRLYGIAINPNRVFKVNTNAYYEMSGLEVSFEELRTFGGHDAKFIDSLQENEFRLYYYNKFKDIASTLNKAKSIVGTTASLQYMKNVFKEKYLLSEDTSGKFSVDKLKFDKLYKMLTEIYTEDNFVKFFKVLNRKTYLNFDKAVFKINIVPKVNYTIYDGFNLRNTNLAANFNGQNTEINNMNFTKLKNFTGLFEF
binder,measurement,value
"4LCA antibody (antibody, V domains shown, also called 4LCA mAb; 4LCA human monoclonal antibody) VH: QLQLQESGPGLVKPSETLSLTCTVSGGSISSSSYFWGWIRQPPGKGLEWIGYIHYSGNTYYNPSLTSRVTMSVDKSKNQFSLKLTSVTAADTALYSCATFLGRGAPFDPWGQGTLVTVSS VL: QPPSVSVAPGQTARITCGGTNIGSKSVHWYQRQPGQAPVLVIYYDTDRPSGIPERFSGSNSENTATLTISRVEAGDEADYYCQVWGSGSDHPGVFGGGTKLTVL",Kd,31 pM
same,koff,7.1e-05 s⁻¹
same,kon,2.3e+06 M⁻¹ s⁻¹
